Test results reported in US11040083B2, “Polypeptides comprising vinculin binding sites for the treatment of proliferation and/or adhesion related diseases” (PARIS SCIENCES ET LETTRES—QUARTIER LATIN, priority 2015, dated 2021).

B1: A524: IpaA 524-633, containing only IpaA VBS1 and VBS2 (protein, listed as Shigella flexneri)
chain: KSKDITKSTTEHRINNKLKVTDANIRNYVTETNADTIDKNHAIYEKAKEVSSALSKVLSKIDDTSAELLTDDISDLKNNNDITAENNNIYKAAKDVTTSLSKVLKNINKD
modifications: A524 / IpaA (524-633)
notes: IpaA 524-633, containing only IpaA VBS1 and VBS2
B2: A483: amino acids 483 to 633 of SEQ ID NO: 1 (IpaA), containing IpaA VBS1, VBS2 and VBS3 (protein, listed as Shigella flexneri)
chain: GDTYLTRETIFEASKKVTNSLSNLISLIGTKSGTQERELQEKSKDITKSTTEHRINNKLKVTDANIRNYVTETNADTIDKNHAIYEKAKEVSSALSKVLSKIDDTSAELLTDDISDLKNNNDITAENNNIYKAAKDVTTSLSKVLKNINKD
modifications: A483 / IpaA (483-633)

Tests used:
[1] = biological target: talin H1-H4 (Homo sapiens, UniProt Q9Y490); test: Native-PAGE gel shift; assay type: binding
Procedure: Talin H1-H4 and IpaA peptides/proteins were incubated in binding buffer for 1 hour at 4° C. After incubation, the protein/peptides were mixed in a 2× Native loading buffer (62.5 mM Tris pH 6.8, Glycerol 25%) and separated by Tris-Glycine Native-PAGE electrophoresis. Gels were stained using standard colloidal Coomassie stain.
Talin H1-H4 and IpaA peptides/proteins at different molar ratios were incubated in binding buffer (25 mM Tris pH 7.4, 100 mM NaCl and 1 mM β-Mercaptoethanol) for 1 hour at 4° C. After incubation, the protein/peptides were mixed in a 2× Native loading buffer (62.5 mM Tris pH 6.8, Glycerol 25%) and separated by Tris-Glycine Native-PAGE electrophoresis. The Native PAGE electrophoresis gels were stained using standard colloidal Coomassie stain.

[2] = test system: C2.7 mice myoblasts cells; test: Immunostaining of focal adhesions in transfected cells; assay type: cell-based; conditions: cells plated for 16 hours
Procedure: C2.7 mice myoblasts cells were seeded at 2.5×10^4 cells in 5 mm rounded cell culture coverslips. Cells were transfected with 3 μg of pcDNA3.1 NT GFP-A483 plasmid, with 6 μL JetPEI transfection reagent (Polyplus) overnight following manufacturer's recommendations. Control and GFP-A483 transfected cells were fixed (3.7% PFA-PBS), permeabilized (0.1% Triton X-100, Sigma-Aldrich) and incubated with a 1/200 monoclonal m11.5 anti-vinculin antibody (ref. V4505, Sigma-Aldrich). Coverslips were washed and incubated with a 1/200 anti-mouse secondary antibody coupled to Alexa 546 (Jackson Research) and 1/200 Phalloidin A633 (Invitrogen), washed and mounted on slides using Dako mounting medium (Invitrogen). Samples were observed using a confocal microscopy with rotary disc (Roper Scientific®). Peripheral and ventral focal adhesion sizes (vinculin) were separated in three different categories (Small/None, Medium and Large) and the size of their focal adherences scored from three independent experiments. The focal adhesion size's distributions between the control and GFP-A483 transfected cells were compared using a Pearson's Chi-squared test.

[3] = test system: melanocytes; test: Time lapse cell migration; assay type: cell-based; conditions: 6 movies per sample, preliminary
[4] = test system: MEF cells; test: TIRF microscopy of focal adhesion markers after ROCK inhibitor Y-27632; assay type: cell-based; conditions: Paxillin, Vinculin, VASP; after Rho-kinase inhibitor Y-27632; preliminary
Excerpt: FIG. 21 is a set of images showing that IpaA prevents the disassembly of focal adhesions induced by the relaxation of the actomyosin contraction. MEF cells were transfected with focal adhesion proteins Paxillin-Cherry (PAX), Vinculin-Cherry (VIN) or VASP-Cherry (VASP). CTRL: single transfection; A483: cells were co-transfected with GFP-A483. The intensity of focal adhesion proteins (visualized as white dots) is shown at the indicated time points in seconds after the addition of the ROCK inhibitor Y-27632 by TIRF microscopy. A483 prevents the destabilization of FA markers induced by the ROCK inhibitor observed in control cells.
In preliminary experiments, we have analyzed the role of actomyosin contraction on the recruitment of FA markers linked to the supra-activation of vinculin, by treating cells with the Rho-kinase inhibitor Y-27632. The disappearance of markers from FAs was analyzed following in real-time using total internal reflection (TIRF) microscopy. […] Strikingly, VASP, a marker of mature FAs, was also stabilized by A483, while previous studies had shown that this FA marker was not stabilized by active vinculin, deficient for head-tail intra-molecular interaction.

[5] = test system: C2.7 myoblastic cells; test: Plating on fibronectin-coated PDMS membranes of different stiffness; assay type: cell-based; conditions: substrate stiffness 1.5 kPa and 15 kPa
Procedure: As previously observed, A483 induced the formation of large adhesion structures in C2.7 cells (FIG. 20A). While A483 transfectants induced a spectacular 5.6-fold increase in the number of adherent cells after 60 seconds of incubation, this increase was reduced to 1.3-fold when adhesion was tested after 30 min. These findings were quantified by measuring the resistance to shear stress of cells under flow as a function of the incubation time with the substrate in microfluidic chambers (FIG. 20B). Thus, through its direct binding via IpaA VBS3/TBS or indirect unveiling of binding sites on vinculin “supra-activated”, A483 may “by-pass” mechanosensing normally associated with the initial steps of cell adhesions' formation. While we cannot rule out the possibility that A483 induces an original ex-nihilo adhesion structure, our current results rather argue that it allows the bypassing of actomyosin-dependent mechanosensing steps that would lead to vinculin supra-activation at high actomyosin contraction forces. To further test this, we plated the C2.7 myoblastic cells on various fibronectin-coated PDMS membranes showing different stiffness. As expected, at low substrate stiffness (1.5 kPa), control cells remained spread and isolated, whereas at high substrate stiffness (15 kPa), cells differentiated into myotubes (FIG. 20C).

[6] = test system: C2.7 mice myoblasts cells; test: Cell adhesion kinetics on fibronectin-coated surfaces; assay type: cell-based
Procedure: C2.7 mice myoblasts cells were seeded at 2.5×10^5 cells in a 10 cm cell culture petri dish (TPP). Cells were transfected with 15 μg of pcDNA3.1 NT GFP-A483 plasmid, with 45 μL JetPEI transfection reagent (Polyplus) overnight following manufacturer's recommendations. Control and transfected cells were detached and washed in a large volume of DMEM/Hepes (ref. 21063-045, Life Technologies) with 0.2% BSA and 50 ng/mL LPA (ref. L7260, Sigma-Aldrich) without FCS. Some 15,000 control/IpaA cells per well were seeded (DMEM/BSA/LPA, no FCS) in 24-well plates added with 5 mm rounded coverslips coated with 25 μg/mL fibronectin and blocked with 2% BSA-PBS 1×. Plates containing cells were centrifuged at 1000 g for 2 minutes, incubated at 37° C. and fixed (3.7% PFA-PBS) at different time points. Coverslips were stained with an anti-vinculin antibody+Phalloidin as described before (Immunostaining) or with a solution containing 1/200 DAPI (1 mg/mL) for number-of-cells adhesion tests. All coverslips were washed and mounted on slides using Dako mounting medium (Invitrogen) and observed using a confocal microscopy with rotary discs (Roper Scientific®).
To confirm this latter result at the scale of a whole cell population, we performed assays where cells, resuspended by trypsinization, were allowed to adhere for define amounts of time on Fn-coated substrates before washing. Then the number of cells that remained attached to the substrate was measured.

Sequence of talin H1-H4 (Q9Y490 482-636): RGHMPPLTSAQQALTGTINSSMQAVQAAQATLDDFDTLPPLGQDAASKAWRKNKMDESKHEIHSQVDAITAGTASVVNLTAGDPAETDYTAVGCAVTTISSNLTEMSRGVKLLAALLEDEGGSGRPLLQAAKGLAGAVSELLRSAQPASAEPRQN

Molecule | formation of a complex with talin H1-H4 [1] | focal adhesions (FA) in transfected cells [2] | effect on cell migration / motility [3] | stabilization of FA markers [4] | concentration at which the complex with talin H1-H4 / migration shift could be detected [1] [µM] | myotube formation [5] | increase in the number of adherent cells ([6]; adhesion tested after 30 min) [fold] | increase in the number of adherent cells ([6]; after 60 seconds of incubation) [fold]
B1 | no migration shift could be detected | not observed |  |  |  |  |  | 
B2 |  |  | strong effect on cell migration | stabilization of all FA markers studied | ≤ 5 | formed myotubes not only at high, but also at low substrate stiffness | 1.3 | 5.6
